Here are results for 79 variants from the supplement of paper PMC7125110.

± gives the standard error. Fewer inactive variants are shown than the library holds.

The labels stand for the following.
B1: glmS ribozyme (parent)
chain: AUAAAAGCGCCAGAACUACAGAAAUGUAGUUGACGAGGAGGAGGUUUAUCGAAUUUUCGGCGGAUGCCUCCAAA

In the first series the parent is B1. The series is described as follows: self-cleavage kobs at 2500 uM GlcN6P; higher = faster cleavage; RNA array. The following applies: with glucosamine-6-phosphate. In outline:
(§1)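 Ribozyme variants carrying barcodes were transcribed in situ on sequenced MiSeq chips by E. coli RNA polymerase and tracked at 37 °C with a hybridised Cy3 probe. They were exposed to 40 μM to 10 mM glucosamine-6-phosphate in HEPES/KCl/Mg(OAc)2 buffer. kobs came from exponential decay fits of normalised per-tile medians, and kcat and KM from weighted Michaelis–Menten fits.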
In the case of C16G U30C G32C C58G, the “self-cleavage kobs at 2500 uM GlcN6P” value is 5.09e-05 ± 2.2e-05 s⁻¹.

In the case of A12U U30A G37A G59U, the “self-cleavage kobs at 2500 uM GlcN6P” value is under 1e-05 s⁻¹.

Consider A12C G38C C71U, for which the “self-cleavage kobs at 2500 uM GlcN6P” value was under 1e-05 s⁻¹.

Regarding G29C G63C, the “self-cleavage kobs at 2500 uM GlcN6P” value was under 1e-05 s⁻¹.

U30C G44U U45G U69G: the “self-cleavage kobs at 2500 uM GlcN6P” value is under 1e-05 s⁻¹.

For G29C A42U U47A, the “self-cleavage kobs at 2500 uM GlcN6P” value was under 1e-05 s⁻¹.

On to A6U A14U U31C A42G A52C A64C, for which the “self-cleavage kobs at 2500 uM GlcN6P” value is under 1e-05 s⁻¹.

For G35C A39U G59A, the “self-cleavage kobs at 2500 uM GlcN6P” value was under 1e-05 s⁻¹.

Regarding A15U C50U U54C G59C, the “self-cleavage kobs at 2500 uM GlcN6P” value was under 1e-05 s⁻¹.

C16G C50U A53C C68G: the “self-cleavage kobs at 2500 uM GlcN6P” value came out at 0.000113 ± 4.6e-05 s⁻¹.

For the variant A6G C11A U49G, the “self-cleavage kobs at 2500 uM GlcN6P” value was under 1e-05 s⁻¹.

As to U45C G66U C70G, the “self-cleavage kobs at 2500 uM GlcN6P” value was 7.12e-05 ± 3.1e-05 s⁻¹.

With A12U A39U A48U, the “self-cleavage kobs at 2500 uM GlcN6P” value was 0.000147 ± 2.7e-05 s⁻¹.

With G13C A33C U47C A64U C70A, the “self-cleavage kobs at 2500 uM GlcN6P” value was under 1e-05 s⁻¹.

Turning to G7A C16U U47C C58G, the “self-cleavage kobs at 2500 uM GlcN6P” value was under 1e-05 s⁻¹.

As to C16G G40U U55A G60U, the “self-cleavage kobs at 2500 uM GlcN6P” value came to 0.000989 ± 0.00047 s⁻¹.

As to C8U C10U G13U G29C C58U C61A C67A, the “self-cleavage kobs at 2500 uM GlcN6P” value was 0.000532 ± 0.00015 s⁻¹.

As to G35C A48G A53U, the “self-cleavage kobs at 2500 uM GlcN6P” value is under 1e-05 s⁻¹.

Take C11U A33U G59A: the “self-cleavage kobs at 2500 uM GlcN6P” value was determined as 0.000169 ± 6.1e-05 s⁻¹.

As to A12C A48G C58G, the “self-cleavage kobs at 2500 uM GlcN6P” value was found to be 4.08e-05 ± 1.8e-05 s⁻¹.

In the case of G43U A48C C61G, the “self-cleavage kobs at 2500 uM GlcN6P” value was under 1e-05 s⁻¹.

For G35C U47G C50G G66A, the “self-cleavage kobs at 2500 uM GlcN6P” value is 7.72e-05 ± 2.7e-05 s⁻¹.

In the case of G29C U30G A39G, the “self-cleavage kobs at 2500 uM GlcN6P” value was found to be 0.00224 ± 0.00066 s⁻¹.

As to G40A U47A U49A C70A, the “self-cleavage kobs at 2500 uM GlcN6P” value was under 1e-05 s⁻¹.

With U31G C58A C67G, the “self-cleavage kobs at 2500 uM GlcN6P” value came to 6.38e-05 ± 2e-05 s⁻¹.

For the variant C10G G41A, the “self-cleavage kobs at 2500 uM GlcN6P” value was under 1e-05 s⁻¹.

As to G7C A15U U31C, the “self-cleavage kobs at 2500 uM GlcN6P” value is under 1e-05 s⁻¹.

Turning to A6G C11G U45A C50A, the “self-cleavage kobs at 2500 uM GlcN6P” value was under 1e-05 s⁻¹.

On to U55A C67U C68G C70A, for which the “self-cleavage kobs at 2500 uM GlcN6P” value worked out at 0.000233 ± 8.8e-05 s⁻¹.

As to G38C A39U A53G U65C, the “self-cleavage kobs at 2500 uM GlcN6P” value is under 1e-05 s⁻¹.

On to A6C A15G U30C, for which the “self-cleavage kobs at 2500 uM GlcN6P” value was determined as 2.76e-05 ± 1.3e-05 s⁻¹.

Consider A36C G37A A39C C50U A53C, for which the “self-cleavage kobs at 2500 uM GlcN6P” value is under 1e-05 s⁻¹.

As for A12G C16U U69G, the “self-cleavage kobs at 2500 uM GlcN6P” value came to 6.28e-05 ± 2.8e-05 s⁻¹.

Take A53G C67G C68U: the “self-cleavage kobs at 2500 uM GlcN6P” value was found to be 7.23e-05 ± 2.2e-05 s⁻¹.

For C11G G35C U49G, the “self-cleavage kobs at 2500 uM GlcN6P” value was under 1e-05 s⁻¹.

Take A12G C61U C67U C68G: the “self-cleavage kobs at 2500 uM GlcN6P” value is 5.12e-05 ± 2.3e-05 s⁻¹.

Take C16G A52G U55G: the “self-cleavage kobs at 2500 uM GlcN6P” value turned out to be 9.56e-05 ± 4.1e-05 s⁻¹.

Take G32C A53C U65C: the “self-cleavage kobs at 2500 uM GlcN6P” value was under 1e-05 s⁻¹.

In the case of A36G G41A C67U, the “self-cleavage kobs at 2500 uM GlcN6P” value was under 1e-05 s⁻¹.

With A14C U56C C67U, the “self-cleavage kobs at 2500 uM GlcN6P” value is under 1e-05 s⁻¹.

With C34U G51U A64C, the “self-cleavage kobs at 2500 uM GlcN6P” value is under 1e-05 s⁻¹.

As to A33G A36G A52U, the “self-cleavage kobs at 2500 uM GlcN6P” value was under 1e-05 s⁻¹.

As to G32U U57A C61A, the “self-cleavage kobs at 2500 uM GlcN6P” value is under 1e-05 s⁻¹.

With C19A C34A, the “self-cleavage kobs at 2500 uM GlcN6P” value was under 1e-05 s⁻¹.

For the variant A14C C16U C68G, the “self-cleavage kobs at 2500 uM GlcN6P” value stood at 9.4e-05 ± 2.8e-05 s⁻¹.

On to A14U G41U U54A, for which the “self-cleavage kobs at 2500 uM GlcN6P” value stood at 0.000104 ± 3.2e-05 s⁻¹.

Turning to C10A C11G G40U C50G A52U, the “self-cleavage kobs at 2500 uM GlcN6P” value is under 1e-05 s⁻¹.

As for C11G G35A C61A, the “self-cleavage kobs at 2500 uM GlcN6P” value is under 1e-05 s⁻¹.

Regarding C8A G35U A52U, the “self-cleavage kobs at 2500 uM GlcN6P” value was under 1e-05 s⁻¹.

Regarding G13A U30A C58A, the “self-cleavage kobs at 2500 uM GlcN6P” value came out at 0.000138 ± 3.4e-05 s⁻¹.

As to A6C C8G G66A C70U, the “self-cleavage kobs at 2500 uM GlcN6P” value is under 1e-05 s⁻¹.

On to C8U G9U G13A G37A G41A, for which the “self-cleavage kobs at 2500 uM GlcN6P” value is under 1e-05 s⁻¹.

Take G29U G35A A42U: the “self-cleavage kobs at 2500 uM GlcN6P” value is under 1e-05 s⁻¹.

Turning to C10U U45A, the “self-cleavage kobs at 2500 uM GlcN6P” value turned out to be 2.72e-05 ± 1.3e-05 s⁻¹.

Regarding A14G A33G A36U A42U U46A, the “self-cleavage kobs at 2500 uM GlcN6P” value was under 1e-05 s⁻¹.

For the variant G44C U46G G63A, the “self-cleavage kobs at 2500 uM GlcN6P” value was under 1e-05 s⁻¹.

As to U49G C61U C67G, the “self-cleavage kobs at 2500 uM GlcN6P” value is under 1e-05 s⁻¹.

Consider A6G C16U G29C, for which the “self-cleavage kobs at 2500 uM GlcN6P” value is 6.69e-05 ± 2e-05 s⁻¹.

As for A6G G37A G66U C70U, the “self-cleavage kobs at 2500 uM GlcN6P” value was under 1e-05 s⁻¹.

On to U30A U49C G66C, for which the “self-cleavage kobs at 2500 uM GlcN6P” value was under 1e-05 s⁻¹.

C8G A14U A39G: the “self-cleavage kobs at 2500 uM GlcN6P” value was under 1e-05 s⁻¹.

In the case of A52U U54A C67U, the “self-cleavage kobs at 2500 uM GlcN6P” value came out at 0.000187 ± 5.3e-05 s⁻¹.

Take A14U G40U G60A C70G C71U: the “self-cleavage kobs at 2500 uM GlcN6P” value is under 1e-05 s⁻¹.

Consider U30G U31A G35A A39G G51C G59A, for which the “self-cleavage kobs at 2500 uM GlcN6P” value is under 1e-05 s⁻¹.

Regarding G37C C50U U69G, the “self-cleavage kobs at 2500 uM GlcN6P” value came to 6.01e-05 ± 2.6e-05 s⁻¹.

For the variant C11A C34G A36U G40A A52G A53U, the “self-cleavage kobs at 2500 uM GlcN6P” value was under 1e-05 s⁻¹.

For the variant G13C C16U C71U, the “self-cleavage kobs at 2500 uM GlcN6P” value was found to be 7.64e-05 ± 1.7e-05 s⁻¹.

As to C16U G40A U69C, the “self-cleavage kobs at 2500 uM GlcN6P” value amounted to 3.52e-05 ± 1.7e-05 s⁻¹.

On to G9C A39U U45C C58U, for which the “self-cleavage kobs at 2500 uM GlcN6P” value is under 1e-05 s⁻¹.

Consider U31G G44U G51C C58U G63U, for which the “self-cleavage kobs at 2500 uM GlcN6P” value is under 1e-05 s⁻¹.

With A36G U49G U55G, the “self-cleavage kobs at 2500 uM GlcN6P” value is under 1e-05 s⁻¹.

U56A G63U: the “self-cleavage kobs at 2500 uM GlcN6P” value was under 1e-05 s⁻¹.

As to A39U G51C C71G, the “self-cleavage kobs at 2500 uM GlcN6P” value is under 1e-05 s⁻¹.

For A36G A52C C68U, the “self-cleavage kobs at 2500 uM GlcN6P” value is under 1e-05 s⁻¹.

For the variant A15G U45C U65G, the “self-cleavage kobs at 2500 uM GlcN6P” value was found to be 0.000117 ± 3.1e-05 s⁻¹.

In the case of A6G G43C C58G, the “self-cleavage kobs at 2500 uM GlcN6P” value was under 1e-05 s⁻¹.

With G32A C34G C71U, the “self-cleavage kobs at 2500 uM GlcN6P” value is under 1e-05 s⁻¹.

Consider A15C A64C C68U, for which the “self-cleavage kobs at 2500 uM GlcN6P” value was under 1e-05 s⁻¹.

In the case of A42U A48G C61A, the “self-cleavage kobs at 2500 uM GlcN6P” value is under 1e-05 s⁻¹.

The variants in another series derive from B1. Kind of series: self-cleavage kobs at 10000 uM GlcN6P; higher = faster cleavage; RNA array. The conditions noted are these: with glucosamine-6-phosphate. A digest of the protocol: as §1
For the variant C11U A33U G59A, the “self-cleavage kobs at 10000 uM GlcN6P” value amounted to 0.000262 ± 5.4e-05 s⁻¹.

For the variant A36C G37A A39C C50U A53C, the “self-cleavage kobs at 10000 uM GlcN6P” value was under 1e-05 s⁻¹.

Turning to C11G G35C U49G, the “self-cleavage kobs at 10000 uM GlcN6P” value is under 1e-05 s⁻¹.

Take A33G A36G A52U: the “self-cleavage kobs at 10000 uM GlcN6P” value is under 1e-05 s⁻¹.

C10U U45A: the “self-cleavage kobs at 10000 uM GlcN6P” value was determined as 2.12e-05 ± 8.6e-06 s⁻¹.

Take A6G C16U G29C: the “self-cleavage kobs at 10000 uM GlcN6P” value is 6.83e-05 ± 1.6e-05 s⁻¹.

Consider C8G A14U A39G, for which the “self-cleavage kobs at 10000 uM GlcN6P” value was under 1e-05 s⁻¹.

Consider G13C C16U C71U, for which the “self-cleavage kobs at 10000 uM GlcN6P” value worked out at 0.000169 ± 5.1e-05 s⁻¹.
